These results are taken from publication PMC7762955, “Antibiotic binding releases autoinhibition of the TipA multidrug-resistance transcriptional regulator” (The Journal of Biological Chemistry, 2020).

The target of data set [1] is SkgA (stationary-phase regulation of KatG protein), Caulobacter crescentus TipA-class transcriptional regulator, full length (Caulobacter crescentus). Briefly: not stated; SkgA in solution (Fig. S2A); method not given.
Data set [2] concerns the target SkgACC (S16C/E133C), double-cysteine mutant of SkgA (Caulobacter crescentus). The experiment in a line: cross-linking; disulfide bonds between introduced cysteines; reduced and nonreduced 15% SDS-PAGE, Coomassie Brilliant Blue staining.
Data set [3] deals with the molecule itself. The experiment in a line: SEC; analytical SEC, Superdex 200 10/300, 40 μM protein, 20 mM Tris-HCl pH 7.5, 150 mM NaCl, 1 mM DTT. On the technique in general: SEC sorts molecules by how far they enter the pores of the column.
Data set [4] relates to tipA promoter DNA (ptipA). The experiment in a line: Fluorescence polarization assay, tipA promoter DNA binding. Also noted: species or system Streptomyces lividans. As to conditions: apo, FPA; for Kd: read-out: Kd, affinity with the tipA promoter DNA (ptipA). On the procedure:
(§1) Fluorescence polarization assays (FPAs) were performed to test the structure-based hypothesis that α6–α7 plays a key role in communication between the ligand-binding and DNA-binding regions. […] Parallel experiments were also performed for Mta and SkgA proteins, and consistent results were obtained.
(§2) FPAs were performed in buffer consisting of 20 mM Tris-HCl, pH 7.5, 200 mM NaCl and 5% (v/v) glycerol at 298 K using a SpectraMax M5 microplate reader system (Molecular Devices, San Jose, CA, USA). The wavelengths of fluorescence excitation and emission were 486 and 525 nm, respectively. 26-bp dsDNA from the −10 and −35 regions of the tipA, mta, and skgA promoters with the sequences […], […], and […] were synthesized with a 5′-carboxyfluorescein label for the respective assays with TipAL, Mta, and SkgA proteins. For assays with thiostrepton supplementation, proteins were incubated with thiostrepton (Sigma) at a 1:1 ratio for 15 min prior to mixing with DNA in wells. Each well of a 384-well plate contained 10 nM of a fluorescently labeled DNA probe and different amounts of proteins with a final volume of 80 μl. DNA-free controls were included, and three replicates were performed for each reaction for each assay. The fluorescence polarization ΔP (in mP units) was calculated and fitted according to a one-site specific binding model using GraphPad Prism7 (GraphPad Software) with the function ΔP = ΔPmax[protein]/(Kd + [protein]).
Background: Fluorescence polarisation rises when a labelled molecule tumbles more slowly, as on binding a larger partner.

The next data set has as its system mta promoter DNA. Briefly: Fluorescence polarization assay, mta promoter DNA binding. On the set-up: species or system Bacillus subtilis. The settings on record: apo, FPA; for Kd: read-out: Kd, affinity with mta promoter DNA. On the procedure: as §1, §2
Data set [5] deals with the molecule itself. Briefly: cross-linking; disulfide bonds between introduced cysteines; reduced and nonreduced 15% SDS-PAGE, Coomassie Brilliant Blue staining.
Setting [6] is: no antibiotic, 10 nM 5'-carboxyfluorescein-labeled 26-bp dsDNA, 20 mM Tris-HCl pH 7.5, 200 mM NaCl, 5% glycerol, 298 K, ex 486/em 525 nm, one-site binding fit, three replicates, n.b. = printed in picture, not defined.
Setting [7] is: 10 nM 5'-carboxyfluorescein-labeled 26-bp dsDNA, 20 mM Tris-HCl pH 7.5, 200 mM NaCl, 5% glycerol, 298 K, ex 486/em 525 nm, one-site binding fit, three replicates, n.b. = printed in picture, not defined.

Numbering of substitutions follows the chain as printed. Names and notes keep the numbering of the source.

One may read the stoichiometry N as the number of molecules, sites or subunits per partner or assembly. In data set [1], “SkgA (stationary-phase regulation of KatG protein), Caulobacter crescentus TipA-class transcriptional regulator, full length (natural protein)” gave a stoichiometry N of 2.

For “SkgACC (S16C/E133C), double-cysteine mutant of SkgA (natural protein)”, the stoichiometry N in data set [2] worked out at 2.

B1: TipAH7 (TipAL residues 1-140), TipAN plus the α6-α7 region (domain or fragment, Streptomyces lividans, UniProt P0A4T9-1 1-140, looked up)
chain: MSYSVGQVAGFAGVTVRTLHHYDDIGLLVPSERSHAGHRRYSDADLDRLQQILFYRELGFPLDEVAALLDDPAADPRAHLRRQHELLSARIGKLQKMAAAVEQAMEARSMGINLTPEEKFEVFGDFDPDQYEEEVRERWG
notes: source: E. coli BL21 (DE3), purified (nickel-nitrilotriacetic acid, Superdex 200 SEC)
As to B1, the “stoichiometry N” value in data set [3] is 2.

B2: TipAH7: truncated protein consisting of TipAN and the α6–α7 region, TipAL residues 1–140 (protein)
chain: B1 chain
modifications: left off: His6, end not stated, state not stated
A word on the Kd: it is the constant that tells how readily two partners part at equilibrium. Take B2: in data set [4] (TipAH7 vs TipAN, range printed jointly for the three H7 truncations), the “lower DNA-binding affinity than N-terminal truncation” value is reported as 4–7 fold. Further, in data set [4] (setting [6]), the equilibrium dissociation constant (Kd) is 318 ± 58.5 nM.

B3: MtaH7: truncated protein containing the α6–α7 region, Mta residues 1–144 (protein, UniProt P71039 1-144, looked up, fragment)
chain: MKYQVKQVAEISGVSIRTLHHYDNIELLNPSALTDAGYRLYSDADLERLQQILFFKEIGFRLDEIKEMLDHPNFDRKAALQSQKEILMKKKQRMDEMIQTIDRTLLSVDGGETMNKRDLFAGLSMKDIEEHQQTYADEVRKLYG
For B3, the “lower DNA-binding affinity than N-terminal truncation” value in the data set on mta promoter DNA (MtaH7 vs MtaN, range printed jointly for the three H7 truncations) is recorded as 4–7 fold. For the same molecule, the Kd on mta promoter DNA (setting [7]) was determined as 467 ± 67.4 nM.

B4: TipAL, full-length thiostrepton-induced protein A of Streptomyces lividans (natural protein, UniProt P0A4T9-1 1-253, looked up)
chain: MSYSVGQVAGFAGVTVRTLHHYDDIGLLVPSERSHAGHRRYSDADLDRLQQILFYRELGFPLDEVAALLDDPAADPRAHLRRQHELLSARIGKLQKMAAAVEQAMEARSMGINLTPEEKFEVFGDFDPDQYEEEVRERWGNTDAYRQSKEKTASYTKEDWQRIQDEADELTRRFVALMDAGEPADSEGAMDAAEDHRQGIARNHYDCGYEMHTCLGEMYVSDERFTRNIDAAKPGLAAYMRDAILANAVRHTP
notes: also called WT TipAL; full-length TipAL; source: E. coli BL21 (DE3), purified (nickel-nitrilotriacetic acid, Superdex 200 SEC)
Turning to B4, in data set [3], the “stoichiometry N” value stood at 2.

B5: TipALCC (T15C/E134C), double-cysteine mutant of TipAL (natural protein, Streptomyces lividans, UniProt P0A4T9-1 1-253, looked up)
chain: B4 chain with T15C, E134C
modifications: disulfide bonds between the introduced cysteines of two protomers (nonreduced sample)
notes: as for B1
On to B5, for which the “stoichiometry N” value in data set [5] is 2.

B6: TipAL: full-length S. lividans TipA transcriptional regulatory protein (protein)
chain: B4 chain
modifications: left off: His6, end not stated, state not stated
notes: full-length S. lividans TipA transcriptional regulatory protein
With B6, the Kd in data set [4] (setting [6]) was 380 ± 56 nM.

B7: TipALCC (protein)
chain: B4 chain with T15C, E134C
modifications: disulfide bonds between the introduced cysteines of two protomers (nonreduced sample); left off: His6, end not stated, state not stated
Take B7: the “ptipA DNA-binding ability” value in data set [4] (double-cysteine mutant) is reported as “complete loss of DNA-binding ability”. The “Kd, affinity with the tipA promoter DNA (ptipA)” value in data set [4] (setting [6]) is recorded as “n.b”.

B8: MtaCC (S15C/E138C), double-cysteine mutant of Mta (natural protein, Bacillus subtilis, UniProt P71039 1-257, looked up)
chain: MKYQVKQVAEISGVCIRTLHHYDNIELLNPSALTDAGYRLYSDADLERLQQILFFKEIGFRLDEIKEMLDHPNFDRKAALQSQKEILMKKKQRMDEMIQTIDRTLLSVDGGETMNKRDLFAGLSMKDIEEHQQTYADCVRKLYGKEIAEETEKRTSAYSADDWRTIMAEFDSIYRRIAARMKHGPDDAEIQAAVGAFRDHICQYHYDCTLDIFRGLGEVYITDERFTDSINQYGEGLAAFLREAIIIYCDHQENPRP
modifications: disulfide bonds between the introduced cysteines of two protomers (nonreduced sample)
notes: as for B1
Consider B8, for which the “stoichiometry N” value in data set [5] was found to be 2.

B9: Mta: B. subtilis multidrug transporter activation protein, TipA-class (protein)
chain: B8 chain with C15S, C138E
modifications: left off: His6, end not stated, state not stated
Consider B9, for which the dissociation constant Kd at mta promoter DNA (setting [7]) came to 496 ± 70.3 nM.

B10: MtaCC (protein)
chain: B8 chain
modifications: disulfide bonds between the introduced cysteines of two protomers (nonreduced sample); left off: His6, end not stated, state not stated
With B10, the “specific binding with mta promoter DNA” value with mta promoter DNA (double-cysteine mutant) is listed as “did not show any specific binding”. Moreover, the “Kd, affinity with mta promoter DNA” value on mta promoter DNA (setting [7]) was “n.b”.

B11: TipAN (TipAL residues 1-109), N terminus of TipAL (domain or fragment, Streptomyces lividans, UniProt P0A4T9-1 1-109, looked up)
chain: MSYSVGQVAGFAGVTVRTLHHYDDIGLLVPSERSHAGHRRYSDADLDRLQQILFYRELGFPLDEVAALLDDPAADPRAHLRRQHELLSARIGKLQKMAAAVEQAMEARS
notes: its limits may differ from this construct; source: E. coli BL21 (DE3), purified (nickel-nitrilotriacetic acid, Superdex 200 SEC)
For the molecule B11, the “stoichiometry N” value in data set [3] is 2.
